Measurements as given in US20220251176A1 (GREEN CROSS, published 2022).

B1: anti-MSLN/anti-CD3 bispecific antibody HMI323/HMI323-A15 (bispecific antibody, human IgG1, kappa, lambda, L234A L235A)
chain 1: DIQMTQSPSSLSASVGDRVTITCRASQDVSTAVAWYQQKPGKAPKLLIYSASYRYPGVPSRFSGSGSGTDFTLTISSLQPEDFATYYCQQHYSTPWTFGGGTKLEIKRTVAAPSVFIFPPSDEQLKSGTASVVCLLNNFYPREAKVQWKVDNALQSGNSQESVTEQDSKDSTYSLSSTLTLSKADYEKHKVYACEVTHQGLSSPVTKSFNRGECSGGGSGGGSEGGGSEGGGSEGGGSEGGGSGGGSGEVQLVQSGAEVKKPGTSVKVSCKASGYSFTSYFIQWVRQAPGQGLEWIGWIFPGSGNTKYSQKFQGRVTITRDTSTSTAYMELSSLRSEDTAVYYCARSGGYQYYFDYWGQGTLVTVSSASTKGPSVFPLAPSSKSTSGGTAALGCLVKDYFPEPVTVSWNSGALTSGVHTFPAVLQSSGLYSLSSVVTVPSSSLGTQTYICNVNHKPSNTKVDKKVGGGGSGGGGSGGGGSQAVVTQEPSLTVSPGGTVTLTCRSSTGAVTTSNYANWVQQKPGQAPRGLIGGTNKRAPWTPARFSGSLLGGKAALTLSGAQPEDEAEYYCALWYSNLWVFGGGTKLTVLGQPKANPTVTLFPPSSEELQANKATLVCLISDFYPGAVTVAWKADGSPVKAGVETTKPSKQSNNKYAASSYLSLTPEQWKSHRSYSCQVTHEGSTVEKTVAPTECSGGGSGGGSEGGGSEGGGSEGGGSEGGGSGGGSGEVQLVESGGGLVQPGGSLKLSCAASGFTFNTYAMNWVRQASGKGLEWVGRIRSKYNNYATYYADSVKDRFTISRDDSKNTAYLQMNSLKTEDTAVYYCVRHGNFGNSYVSWFAYWGQGTLVTVSSASTKGPSVFPLAPSSKSTSGGTAALGCLVKDYFPEPVTVSWNSGALTSGVHTFPAVLQSSGLYSLSSVVTVPSSSLGTQTYICNVNHKPSNTKVDKKVEPKSCDKTHTCPPCPAPEAAGGPSVFLFPPKPKDTLMISRTPEVTCVVVDVSHEDPEVKFNWYVDGVEVHNAKTKPREEQYNSTYRVVSVLTVLHQDWLNGKEYKCKVSNKALPAPIEKTISKAKGQPREPRVYTLPPCRDELTKNQVSLTCLVKGFYPSDIAVEWESNGQPENNYKTTPPVLVSDGSFTLYSKLTVDKSRWQQGNVFSCSVMHEALHNHYTQKSLSLSPG
chain 2: DIQMTQSPSSLSASVGDRVTITCRASQDVSTAVAWYQQKPGKAPKLLIYSASYRYPGVPSRFSGSGSGTDFTLTISSLQPEDFATYYCQQHYSTPWTFGGGTKLEIKRTVAAPSVFIFPPSDEQLKSGTASVVCLLNNFYPREAKVQWKVDNALQSGNSQESVTEQDSKDSTYSLSSTLTLSKADYEKHKVYACEVTHQGLSSPVTKSFNRGECSGGGSGGGSEGGGSEGGGSEGGGSEGGGSGGGSGEVQLVQSGAEVKKPGTSVKVSCKASGYSFTSYFIQWVRQAPGQGLEWIGWIFPGSGNTKYSQKFQGRVTITRDTSTSTAYMELSSLRSEDTAVYYCARSGGYQYYFDYWGQGTLVTVSSASTKGPSVFPLAPSSKSTSGGTAALGCLVKDYFPEPVTVSWNSGALTSGVHTFPAVLQSSGLYSLSSVVTVPSSSLGTQTYICNVNHKPSNTKVDKKVEPKSCDKTHTCPPCPAPEAAGGPSVFLFPPKPKDTLMISRTPEVTCVVVDVSHEDPEVKFNWYVDGVEVHNAKTKPREEQYNSTYRVVSVLTVLHQDWLNGKEYKCKVSNKALPAPIEKTISKAKGQPREPQVCTLPPSRDELTENQVSLTCLVKGFYPSDIAVEWESNGQPENNYKTTPPVLDSDGSFFLYSWLTVDKSRWQQGNVFSCSVMHEALHNHYTQKSLSLSPG
notes: Knob-into-hole heterodimer of two single chains, 2+1 IgG format
B2: recombinant human CD3 (receptor)
chain: DGNEEMGGITQTPYKVSISGTTVILTCPQYPGSEILWQHNDKNIGGDEDDKNIGSDEDHLSLKEFSELEQSGYYVCYPRGSKPEDANFYLYLRARVCENCMEMD

Assays:
[1] = molecular target: T1, MSLN on H226 and AsPC-1 cancer cell lines (UniProt Q13421 296-598); assay: cell-based or functional assay
T1 sequence (Q13421 other isoform, or with tags, fused parts or gaps limits assumed): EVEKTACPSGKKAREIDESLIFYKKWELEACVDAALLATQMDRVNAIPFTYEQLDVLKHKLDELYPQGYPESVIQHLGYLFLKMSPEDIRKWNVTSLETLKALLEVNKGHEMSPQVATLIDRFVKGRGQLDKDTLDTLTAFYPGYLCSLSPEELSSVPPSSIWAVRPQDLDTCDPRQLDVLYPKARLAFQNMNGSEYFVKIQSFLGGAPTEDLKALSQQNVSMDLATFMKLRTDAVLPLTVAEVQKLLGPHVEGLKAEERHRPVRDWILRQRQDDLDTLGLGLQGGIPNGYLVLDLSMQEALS

[2] = molecular target: T2, recombinant human MSLN (human, UniProt Q13421 296-580, limits assumed); assay: BLI (Octet), antigen immobilised on APS sensor, antibody 6.25-100 nM
T2 construct: Immobilised on an APS sensor in the Octet assay; also called mesothelin
T2 sequence (Q13421 other isoform, or with tags, fused parts or gaps limits assumed): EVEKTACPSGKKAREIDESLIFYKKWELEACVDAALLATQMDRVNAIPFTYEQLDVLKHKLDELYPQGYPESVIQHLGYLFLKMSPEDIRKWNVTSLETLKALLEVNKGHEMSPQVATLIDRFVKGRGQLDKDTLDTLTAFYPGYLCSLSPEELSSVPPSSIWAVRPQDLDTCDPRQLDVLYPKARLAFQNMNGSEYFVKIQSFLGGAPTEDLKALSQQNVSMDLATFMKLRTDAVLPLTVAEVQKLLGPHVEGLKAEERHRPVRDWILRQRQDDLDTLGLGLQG

[3] = molecular target: B2; assay: as above
[4] = molecular target: T3, CD3 on Jurkat E6-1 T cell line (UniProt P07766 23-207); assay: flow cytometry on Jurkat E6-1 cells (express CD3), PE anti-human IgG
T3 construct: whole, on cells; On the cells CD3 is the whole complex
Method: (§1) Then, light was blocked for one and a half hours and incubation was performed at 4° C. Subsequently, 200 μl of FACS buffer was added thereto. Centrifugation was performed at 2,000 rpm for 3 minutes at 4° C., and then the supernatant was removed.
(§2) Then, light was blocked for 30 minutes and incubation was performed at 4° C. Subsequently, 200 μl of FACS buffer was added thereto, and centrifugation was performed at 2,000 rpm for 3 minutes at 4° C.; and then the supernatant was removed to obtain a sample.
(§3) 200 μl of BD CYTOFIX™ was added to the sample so that the cells were suspended, and analysis was performed by BD LSR FORTESSA™.

[5] = molecular target: T1, MSLN on H226 and AsPC-1 cancer cell …; assay: flow cytometry on H226 cells (overexpress MSLN and EGFR), PE anti-human IgG
Method: as §1, §2, §3

[6] = molecular target: T1, MSLN on H226 and AsPC-1 cancer cell …; assay: flow cytometry on AsPC-1 cells (overexpress MSLN and EGFR), PE anti-human IgG
Method: as §1, §2, §3

[7] = molecular target: T4, anti-EGFR/anti-MSLN/anti-CD3 trispecific antibody Cetuximab/HMI323-A15; assay: BLI (Octet), antigen immobilised on APS sensor, antibody 6.25-100 nM
T4 construct: Trispecific antibody: knob-into-hole heterodimer of two single chains, 2+1 IgG format

Binder | IC50 of PBMC-mediated cell killing; AsPC-1; PBMC:target cell 10:1; 24 hr [1] [nM] | IC50 of PBMC-mediated cell killing; AsPC-1; PBMC:target cell 10:1; 48 hr [1] [nM] | IC50 of PBMC-mediated cell killing; AsPC-1; PBMC:target cell 20:1; 48 hr [1] [nM] | IC50 of PBMC-mediated cell killing; H226; PBMC:target cell 10:1; 24 hr [1] [nM] | IC50 of PBMC-mediated cell killing; H226; PBMC:target cell 10:1; 48 hr [1] [nM] | IC50 of PBMC-mediated cell killing; H226; PBMC:target cell 20:1; 48 hr [1] [nM] | Kd [2] [nM] | koff [2] [s⁻¹] | kon [2] [M⁻¹ s⁻¹] | Kd [3] [nM] | koff [3] [s⁻¹] | kon [3] [M⁻¹ s⁻¹] | EC50 [4] [nM] | EC50 [5] [nM] | EC50 [6] [nM] | Kd [7] [nM] | koff [7] [s⁻¹] | kon [7] [M⁻¹ s⁻¹]
B1 | 0.406 | 0.144 | 0.0304 | 0.0844 | 0.0503 | 0.0153 | 7.79 | 0.000774 | 99400 | 52.6 | 0.0242 | 461000 | 58 | 6.2 | 4.7 | – | – | –
B2 | – | – | – | – | – | – | – | – | – | – | – | – | – | – | – | 13.5 | 0.00625 | 463000
